Reference: patent publication US20170362301A1 (Janssen / Centocor, published 2017)
Where a chain is given by its changes, count along the chain named. In names and notes the source's numbering stands. Several values for one entry are separate records, joined by “and”; a condition that tells them apart may be missing. Identical values can stand only once.

B1: P54AR4-83v2 Y28C, NEM conjugate (designed binder)
chain: LPAPKNLVVSEVTEDSARLSWDDPWAFCESFLIQYQESEKVGEAIVLTVPGSERSYDLTGLKPGTEYTVSIYGVHNVYKDTNMRGLPLSAIFTT
modifications: NEM on Cys 28
notes: His-tagged
B2: P54AR4-83v2 Y72C, NEM conjugate (designed binder)
chain: B1 chain with C28Y, Y72C
modifications: NEM on Cys 72
notes: His-tagged
B3: P54AR4-83v2 V77C, NEM conjugate (designed binder)
chain: B1 chain with C28Y, V77C
modifications: NEM on Cys 77
notes: His-tagged
B4: P54AR4-83v2 W25C, NEM conjugate (designed binder)
chain: B1 chain with W25C, C28Y
modifications: NEM on Cys 25
notes: His-tagged
B5: P54AR4-83v2 Y78C, NEM conjugate (designed binder)
chain: B1 chain with C28Y, Y78C
modifications: NEM on Cys 78
notes: His-tagged
B6: P54CR4-31 (designed binder)
chain: LPAPKNLVVSEVTEDSLRLSWTAPDAAFDSFLIQYQESEKVGEAINLTVPGSERSYDLTGLKPGTEYTVSIYGVLGSYVFEHDVMLPLSAEFTT
B7: P53A1R5-17 (designed binder)
chain: B1 chain with A17L, D22A, W25H, A26G, C28Y, E29D, V46N, I91E
B8: P54AR4-48 (designed binder)
chain: B1 chain with A17L, W25R, A26G, C28Y, V46N, I91E
B9: P54AR4-17 (designed binder)
chain: LPAPKNLVVSEVTEDSLRLSWTYDRDGYDSFLIQYQESEKVGEAINLTVPGSERSYDLTGLKPGTEYTVSIYGVHNVYKDTNMRGLPLSAEFTT
B10: P54AR4-83 (designed binder)
chain: B1 chain with A17L, C28Y, V46N, I91E
B11: P54AR4-73 (designed binder)
chain: B9 chain with Y23W, D24P, R25Y, D26A, G27D, Y28L
B12: 83v2cy5-mal-PEG4-MMAE (designed binder)
chain: MLPAPKNLVVSEVTEDSARLSWDDPWAFYESFLIQYQESEKVGEAIVLTVPGSERSYDLTGLKPGTEYTVSIYGVHNVYKDTNMRGLPLSAIFTTGGHHHHHHC
modifications: mal-PEG4-MMAE on the cysteine
B13: 83v2cy5-mal-PEG4-VC-MMAE (designed binder)
chain: B12 chain
modifications: mal-PEG4-VC-MMAE on the cysteine
B14: 83v2cy5-mal-PEG4-VC-MMAF (designed binder)
chain: B12 chain
modifications: mal-PEG4-VC-MMAF on the cysteine
B15: 83v2cy5-mal-PEG4-VK-MMAF (designed binder)
chain: B12 chain
modifications: mal-PEG4-VK-MMAF on the cysteine
B16: 83v2cy5-mal-PEG4-VK-MMAE (designed binder)
chain: B12 chain
modifications: mal-PEG4-VK-MMAE on the cysteine
B17: 83v2cy5-mal-PEG4-MMAF (designed binder)
chain: B12 chain
modifications: mal-PEG4-MMAF on the cysteine
B18: 83v2His6-cys, NEM conjugate (designed binder)
chain: B12 chain
modifications: NEM on the C-terminal Cys
notes: also called P54AR4-83v2-cys; P54AR4-83v2 parent
B19: ECB5 (designed binder)
chain: MLPAPKNLVVSEVTEDSARLSWADPHGFYDSFLIQYQESEKVGEAIVLTVPGSERSYDLTGLKPGTEYTVSIYGVHNVYKDTNMRGLPLSAIFTTGGGGSGGGGSGGGGSGGGGSMLPAPKNLVVSRVTEDSARLSWTAPDAAFDSFWIRYFEFLGSGEAIVLTVPGSERSYDLTGLKPGTEYVVNIMGVKGGKISPPLSAIFTT
B20: P114AR5P74-A5 (designed binder)
chain: LPAPKNLVVSRVTEDSARLSWTAPDAAFDSFWIRYDEVVVGGEAIVLTVPGSERSYDLTGLKPGTEYYVNILGVKGGSISVPLSAIFTT
B21: ECB38 (designed binder)
chain: MLPAPKNLVVSEVTEDSARLSWDDPWAFYESFLIQYQESEKVGEAIVLTVPGSERSYDLTGLKPGTEYTVSIYGVHNVYKDTNMRGLPLSAIFTTAPAPAPAPAPLPAPKNLVVSRVTEDSARLSWTAPDAAFDSFWIRYFEFLGSGEAIVLTVPGSERSYDLTGLKPGTEYVVNIMGVKGGKISPPLSAIFTTAPAPAPAPAPLAEAKVLANRELDKYGVSDYYKNLINNAKTVEGVKALLDEILAALP
B22: ECB147v6-PEG24 (designed binder)
chain: B21 chain with K63C, G178S, K183S
modifications: PEG24-maleimide on the engineered cysteine
B23: ECB147v3-PEG24 (designed binder)
chain: B21 chain with K63C, A98C, K167C, G178S, K183S, A197C
modifications: PEG24-maleimide on the engineered cysteines
B24: ECB147v5-PEG24 (designed binder)
chain: B21 chain with K63C, K167C, G178S, K183S
modifications: PEG24-maleimide on the engineered cysteines
B25: ECB147v7-PEG24 (designed binder)
chain: B21 chain with A98C, G178S, K183S, A197C
modifications: PEG24-maleimide on the engineered cysteines

Each binder was assayed against T1, EGFR (form in the assay not stated) (human, UniProt P00533 25-645, limits assumed) (assay: ELISA, NEM conjugate 500 nM).

Binder	binding ratio vs parent P54AR4-83v2 [ratio]
B1	0.09
B2	0.93
B3	0.03
B4	0.7
B5	0.68

These binders were tested against T1, EGFR (form in the assay not stated) (assay: ELISA, NEM conjugate 100 nM).

Binder	binding ratio vs parent P54AR4-83v2 [ratio]
B1	0.01
B2	1
B3	0
B4	0.64
B5	0.63

Each binder was assayed against T2, EGFR on cells (A431, NCI-H292, NCI-H322, NCI-H441) (human, UniProt P00533 25-1210) (assay: cell-based or functional assay).

Binder	Phospho-EGFR IC50, A431 cells [nM]
B6	179
B7	> 2500
B8	170
B9	184
B10	18
B11	141

Molecular target: T2, EGFR on cells (A431, NCI-H292, …)
Assay: cell-based or functional assay
Remark: another data set of the same source

Binder	IC50 A431 (nM), cell viability [nM]	IC50 H1537 (nM), cell viability
B12	> 500	
B13	315	
B14	1.6	1.19 nM and 1.05 nM
B15	3.9	
B16	19.6	
B17	> 1000	

What follows are binders tested against T1, EGFR (form in the assay not stated) (assay: ELISA, NEM conjugate 10 nM (the reference itself)).

Binder	binding ratio vs parent P54AR4-83v2 [ratio]
B18	1

Molecular target: T2, EGFR on cells (A431, NCI-H292, …)
Assay: cell-based or functional assay
Remark: another data set of the same source

Binder	fold decrease of IC50 for inhibition of EGFR phosphorylation in NCI-H441 cells against monospecific P53A1R5-17v2 [fold]
B19	30

What follows are binders tested against T3, c-Met on cells (NCI-H441, NCI-H292, U87-MG) (human, UniProt P08581 25-1390) (assay: cell-based or functional assay).
T3 sequence (P08581 other isoform, or with tags, fused parts or gaps limits assumed): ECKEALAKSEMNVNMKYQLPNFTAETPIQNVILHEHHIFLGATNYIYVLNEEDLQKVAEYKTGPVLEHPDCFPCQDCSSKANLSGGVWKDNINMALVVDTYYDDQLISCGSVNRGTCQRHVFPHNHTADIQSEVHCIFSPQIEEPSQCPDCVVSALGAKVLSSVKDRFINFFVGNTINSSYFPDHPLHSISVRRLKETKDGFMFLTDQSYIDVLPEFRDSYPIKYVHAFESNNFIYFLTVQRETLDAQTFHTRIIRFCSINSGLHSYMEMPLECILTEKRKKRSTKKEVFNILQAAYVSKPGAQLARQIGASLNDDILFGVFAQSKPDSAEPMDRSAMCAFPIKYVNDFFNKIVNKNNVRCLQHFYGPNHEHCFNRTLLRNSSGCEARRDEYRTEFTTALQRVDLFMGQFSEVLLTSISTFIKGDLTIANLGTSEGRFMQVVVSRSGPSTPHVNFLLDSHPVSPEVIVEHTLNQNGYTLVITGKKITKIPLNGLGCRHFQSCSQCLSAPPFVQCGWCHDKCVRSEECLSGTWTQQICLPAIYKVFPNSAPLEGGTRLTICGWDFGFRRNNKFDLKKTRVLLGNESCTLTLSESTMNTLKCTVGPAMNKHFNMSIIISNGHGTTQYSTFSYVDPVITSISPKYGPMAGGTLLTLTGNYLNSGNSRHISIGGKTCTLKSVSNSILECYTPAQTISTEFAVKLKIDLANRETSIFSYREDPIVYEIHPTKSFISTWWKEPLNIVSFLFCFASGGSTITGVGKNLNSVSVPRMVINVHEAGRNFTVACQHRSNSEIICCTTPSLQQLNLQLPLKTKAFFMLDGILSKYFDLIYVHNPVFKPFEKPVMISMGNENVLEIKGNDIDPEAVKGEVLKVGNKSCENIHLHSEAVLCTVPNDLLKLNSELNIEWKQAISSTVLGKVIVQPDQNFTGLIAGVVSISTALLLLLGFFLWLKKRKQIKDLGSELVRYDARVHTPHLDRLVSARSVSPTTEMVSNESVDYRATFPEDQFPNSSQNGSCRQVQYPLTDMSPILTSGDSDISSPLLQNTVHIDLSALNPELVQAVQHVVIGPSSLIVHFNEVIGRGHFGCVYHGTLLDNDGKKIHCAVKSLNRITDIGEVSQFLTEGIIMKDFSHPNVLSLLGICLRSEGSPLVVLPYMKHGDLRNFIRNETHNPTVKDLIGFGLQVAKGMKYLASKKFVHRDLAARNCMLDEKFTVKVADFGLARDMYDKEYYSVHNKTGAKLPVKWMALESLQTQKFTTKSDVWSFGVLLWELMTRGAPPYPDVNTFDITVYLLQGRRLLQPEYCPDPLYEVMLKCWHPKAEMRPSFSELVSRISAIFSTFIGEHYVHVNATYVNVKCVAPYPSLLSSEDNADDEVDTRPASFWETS

Binder	c-Met phosphorylation in NCI-H292 cells IC50 [nM]
B20	610

What follows are binders tested against T1, EGFR (form in the assay not stated) (assay: ELISA, NEM conjugate 100 nM (the reference itself)).

Binder	binding ratio vs parent P54AR4-83v2 [ratio]
B18	1

Molecular target: T2, EGFR on cells (A431, NCI-H292, …)
Assay: cell-based or functional assay
Remark: another data set of the same source

Binder	EGF-stimulated EGFR phosphorylation in NCI-H292 cells IC50 [nM]
B21	2.3
B22	1.4
B23	1.6
B24	0.9
B25	1.4

Molecular target: T3, c-Met on cells (NCI-H441, NCI-H292, …)
Assay: cell-based or functional assay
Remark: another data set of the same source

Binder	HGF-stimulated c-Met phosphorylation in NCI-H292 cells IC50 [nM]
B21	1.3
B22	0.4
B23	0.5
B24	0.4
B25	0.5

These binders were tested against T1, EGFR (form in the assay not stated) (assay: ELISA, NEM conjugate 10 nM).

Binder	binding ratio vs parent P54AR4-83v2 [ratio]
B1	0
B2	0.93
B3	0.03
B4	0.38
B5	0.31

What follows are binders tested against T1, EGFR (form in the assay not stated) (assay: ELISA, NEM conjugate 500 nM (the reference itself)).

Binder	binding ratio vs parent P54AR4-83v2 [ratio]
B18	1
